Source: patent publication US20210355194A1 (TWIST BIOSCIENCE, published 2021)
Read-outs that look alike come from different tables or passages of the source.

Columns and labels:
S1 Fc fusion protein [1] = molecular target: T1, S1 Fc fusion protein (SARS-CoV-2, UniProt P0DTC2 14-685); experiment: phage ELISA
T1 construct: domain: S1

[2] = molecular target: T2, COVID S1 RBM Fc fusion (Antigen 2) (SARS-CoV-2, UniProt P0DTC2 437-508); experiment: phage ELISA
T2 construct: domain: RBM

[3] = molecular target: T3, COVID S1 RBD Fc fusion (Antigen 1) (SARS-CoV-2, UniProt P0DTC2 319-541); experiment: phage ELISA
[4] = molecular target: T4, SARS-CoV-2 S1 (antigen of the Carterra SPR kinetics) (SARS-CoV-2, UniProt P0DTC2 16-685); experiment: Carterra SPR
S1 Fc fusion protein [5] = molecular target: T1, S1 Fc fusion protein; experiment: phage ELISA; remark: listed apart in the source
[6] = molecular target: T2, COVID S1 RBM Fc fusion (Antigen 2); experiment: phage ELISA; remark: listed apart in the source
[7] = molecular target: T3, COVID S1 RBD Fc fusion (Antigen 1); experiment: phage ELISA; remark: listed apart in the source
[8] = molecular target: T4, SARS-CoV-2 S1 (antigen of the Carterra …); experiment: Carterra SPR; remark: listed apart in the source

B1: SARS-CoV-2 S1 variant 2-5 (antibody, V domains shown)
VH: EVQLLESGGGLVQPGGSLRLSCAASGFTFSDFAMAWVRQAPGKGLEWVSAISGSGDITYYADSVKGRFTISRDNSKNTLYLQMNSLRAEDTAVYYCAREADGLHSPWHFDLWGQGTLVTVSS
VL: DIQMTQSPSSLSASVGDRVTITCRASQSIHTYLNWYQQKPGKAPKLLIYAASALASGVPSRFSGSGSGTDFTLTISSLQPEDFATYYCQQSYSAPPYTFGQGTKVEIK
In the case of B1, the “ELISA fold over background” value (S1 Fc fusion protein [1]) is reported as 24.3 fold, the “ELISA fold over background” value [2] is reported as 1.1 fold and the “ELISA fold over background” value [3] is reported as 35.9 fold. For the same binder, the koff [4] was 0.000259 s⁻¹, the kon [4] was 93900 M⁻¹ s⁻¹ and the “ELISA fold over background” value (S1 Fc fusion protein [5]) was 24.3 fold. For the same binder, the “ELISA fold over background” value [6] was 1.1 fold, the “ELISA fold over background” value [7] was 35.9 fold and the Kd [8] was 2.8 nM. For the same binder, the koff [8] was 0.000259 s⁻¹ and the kon [8] was 93900 M⁻¹ s⁻¹.

B2: SARS-CoV-2 S1 variant 2-2 (antibody, V domains shown)
VH: EVQLLESGGGLVQPGGSLRLSCAASGFTFSRHAMNWVRQAPGKGLEWVSGISGSGDETYYADSVKGRFTISRDNSKNTLYLQMNSLRAEDTAVYYCARDLPASYYDSSGYYWHNGMDVWGQGTLVTVSS
VL: DIQMTQSPSSLSASVGDRVTITCRASQTINTYLNWYQQKPGKAPKLLIYSASTLQSGVPSRFSGSGSGTDFTLTISSLQPEDFATYYCQQSYSTFTFGQGTKVEIK
In the case of B2, the “ELISA fold over background” value (S1 Fc fusion protein [1]) is reported as 4.7 fold, the “ELISA fold over background” value [2] is reported as 1.1 fold and the “ELISA fold over background” value [3] is reported as 39.6 fold. The koff [4] was 0.000906 s⁻¹, the kon [4] was 77400 M⁻¹ s⁻¹ and the “ELISA fold over background” value (S1 Fc fusion protein [5]) was 4.7 fold. For the same binder, the “ELISA fold over background” value [6] was 1.1 fold, the “ELISA fold over background” value [7] was 39.6 fold and the Kd [8] was 11.7 nM. For the same binder, the koff [8] was 0.000906 s⁻¹ and the kon [8] was 77400 M⁻¹ s⁻¹.
